The values that follow come from paper PMC13137875.

Where “and” joins values, the source holds several entries; their conditions need not be identical. Equal values may be shown once.

The target of test [1] is G-actin (Oryctolagus cuniculus) (UniProt P68135). Conditions: cited from earlier work.
Test [2] deals with Rabbit skeletal muscle actin (G-actin) (rabbit) (UniProt P68135). Briefly: SEC-SAXS.

As to Sca2 (from UniProt Q92JF7), the Kd in test [1] was 20 nM and 200 nM.
In test [2], “R. bellii MBP-Sca2/6 (maltose-binding protein tagged passenger domain of Sca2/6) (domain or fragment)” had a stoichiometry N of 1.
